Measured values reported in US9623039B2, “Treatment and prevention of pathological conditions using iduna related techniques and compositions” (VALTED, LLC, priority 2010, dated 2017).

Experiments:
PAR polymer = PAR polymer overlay / dot blot (far western); assay type: binding; conditions: PAR polymer overlay assay
Text: PAR binding is specified by a sequence of approximately 20 amino acids containing N-terminal basic amino acids and a C-terminal region containing alternating hydrophobic and basic amino acids (FIG. 24). Iduna contains a predicted PAR polymer binding sequence within amino acids 144-167 of the WWE domain (FIGS. 1 and 24). The PAR-binding domain was defined by comparing to the consensus sequence for PAR-binding and the known PAR binding domain of Histone 3 (FIG. 24). HEK293 cells were transfected with GFP, GFP-Iduna lacking the WWE domain (GFP-IdunaΔWWE), GFP-Iduna lacking the RF domain (GFP-IdunaARF), and full-length GFP-Iduna, followed by immunoprecipitation with a GFP antibody. […] Only GFP-Iduna-ARF and full-length GFP-Iduna can co-immunoprecipiate PAR binding proteins (FIG. 25). The critical amino acids in the PAR binding domain, 156Y and 157R, were mutated to 156A and 157A in full length Iduna (Iduna-YRAA). […] Similar results are obtained with a biotin-tagged PAR polymer followed by detection with an anti-biotin antibody (FIG. 26). […] Histone H3 is a known PAR binding protein and was used as a positive control for the PAR overlay assay. […] An assay based on electrophorectic mobility shift (EMSA) for PAR binding was developed to monitor PAR polymer binding to Iduna. […]

MCF7 cells [1] = assay: Alkaline comet assay after γ-irradiation; assay type: cell-based, human; conditions: γ-irradiation 2 Gy, 15 min
Procedure: Comet assay. Single cell gel electrophoresis assay was performed by following the manufacturer's instructions. Briefly, established stable cell lines were irradiated (2 Gy) with a Gammacell irradiator and then further incubated for 15 min at 37° C. Cells were collected at 500×g at 4° C. and rinsed twice with ice cold PBS (Ca++ and Mg++ free). A total of 5×10^5 cells were counted and resuspended into PBS (Ca++ and Mg++ free) and then combined with LMAgarose (low melting agarose) at a ratio 1:10 (v/v). Each sample was spotted into CometSlide™ and lysed with buffer (supplied with CometAssay Kit, Trevigen) for 1 h at 4° C. After draining the excess lysis buffer, slides were immersed with alkaline unwinding solution (200 mM NaOH, pH>13, 1 mM EDTA) for 1 h at RT. To the single cell electrophoresis, each comet slide was placed in electrophoresis slide tray with 1 L of alkaline unwinding solution and applied to 21 Volts for 30 min for electrophoresis. After draining the excess electrophoresis buffer, slides were rinsed twice with dH2O and then fixed with 70% ethanol for 5 min. To facilitate single cell observation, slides were dried at 40° C. and stained with SYBR Green I (supplied with CometAssay Kit) for 5 min at 4° C. […] Fifty cells per slide were monitored and the DNA damage was calculated using comet tail length and head diameter parameters.

MCF7 cells [2] = assay: Cell cycle analysis after γ-irradiation; assay type: cell-based, human; conditions: γ-irradiation 2 Gy
Procedure: Cell cycle analysis. Studies were performed to evaluate the cell cycle response of each stable cell lines. Cells were plated onto 150 mm culture dishes and cultured for 24 h at 37° C. with fresh growth medium. Following replacement of growth medium, cells were irradiated at 2 Gy with a Gammacell irradiator. After 12 h, cells were washed once with PBS and incubated with PBS containing 0.2% EDTA for 5 min at 37° C., thereafter scraped with fresh growth medium and collected at 500×g at 4° C. Collected cells were washed once with ice cold PBS and then fixed with 70% ethanol. Cells were washed once with PBS containing 1% FBS and resuspended into propidium iodide (PI) staining buffer (PBS, pH 7.4, 50 μg/ml PI, 1% FBS, 100 μg/ml RNase) for 30 min at 37° C. Cells were monitored for DNA content by a flow cytometry (BD Biosciences) and then data were analyzed with FlowJo using Dean-Jett-Fox model for the quantification of each cell cycle phase.

MCF7 cells [3] = assay: MNNG cell death assay in stable MCF7 cell lines; assay type: cell-based, human; conditions: MNNG 500 μM 15 min, 24 hr
Procedure: Cell death assay. GFP, GFP-Iduna, GFP-Iduna C60A, GFP-Iduna YRAA, shRNA-Iduna and shRNA-Iduna/GFP-Iduna stably transfected cells were treated with 500 μM MNNG for 15 min, and replaced with fresh growth media. After 24 h, the cells were stained with […] Hoechst 33342 (Invitrogen) and […] propidium iodide (PI) (Invitrogen) and counted by automated computer-assisted program (Carl Zeiss). The percentage of cell death was determined as the ratio of live to dead cells compared with the percentage of cell death in control.

MCF7 cells [4] = assay: Determination of apurinic/apyrimidinic (AP) sites; assay type: cell-based, human; conditions: 1 h
Procedure: Determination of apurinic/apyrimidinic (AP) sites. The amount of AP sites in genomic DNA was monitored by a DNA damage quantification kit (BioVision). Briefly, cells were treated with either DMSO or 500 μM MNNG for 15 min, and then replaced with normal growth media. After 1 h, cells were scraped and harvested at 500×g for 5 min and washed once with PBS. Genomic DNA was isolated using a Biovision Genomic DNA Isolation Kit (BioVision) and then AP sites on the 0.5 μg of genomic DNA was labeled with biotin by the Aldehyde Reactive Probe (ARP) reagent (supplied with the DNA damage quantification kit) for 1 h at 37° C. To precipitate the biotin-tagged DNA, sample was mixed with TE buffer containing 2% glycogen and then sequentially incubated with ice cold 70% ethanol for 30 min at −20° C. […] To determine of the number of AP sites in DNA, samples were dissolved in TE buffer and then transferred into 96 well plate with DNA binding buffer (supplied with the DNA damage quantification kit). After 12 h, samples were washed five times with DNA washing buffer (supplied with the DNA damage quantification kit) and then biotin labeled AP sites were quantified using an avidin-biotin assay. Each sample and standards (supplied with a DNA damage quantification kit) were run in triplicate and the OD was measured at 650 nm using a 96-well plate reader (SpectraMax Plus384 Microplate Reader).

PARsylated PARP1 = assay: PARG activity on PARsylated PARP1; assay type: biochemical
Procedure: FIG. 85—PARG activity was measured by incubation with PARsylated PARP1 as indicated. The level of PARsylated PARP1 (Rb-PARP1) was monitored by immunoblot with anti-PAR antibody. There is a slight difference in the sensitivity of assays used to detect PAR, which accounts for the ability of 1 unit of PARG to eliminate PAR in B, but 1.2 units of PARG is required in A.
As disclosed herein, Iduna contains a consensus PBM is its WWE domain and that mutating the hydrophobic amino acids 155Y and 156R to alanine to create an Iduna YRAA mutant disrupts PAR binding to Iduna. MCF7 cells were transfected with GFP-Iduna, GFP-Iduna C60A and GFP-Iduna YRAA. 48 hours later Iduna was immunoprecipitated with antibodies to GFP followed by immunoblot analysis with antibodies to PAR. Iduna and Iduna C60A bind PAR whereas Iduna YRAA is incapable of binding PAR (FIG. 83). To confirm that Iduna binding to PARP1 is dependent on PARsylation of PARP1, binding of automodified PARP1 with ^32P-NAD was monitored in a GST pull down experiment with Histone H3 as a positive control (FIGS. 84 and 85). […] Iduna and Iduna-C60A bind to a range of PAR polymers of varying length similar to H3, whereas Iduna-YRAA fails to bind to PAR, as determined by phosphorimager detection of radiolabeled PAR polymer bound to Iduna, Iduna-C60A and H3 after separation by Tris-borate-EDTA PAGE (FIG. 87).

B1: GST-Iduna: full length recombinant GST-Iduna fusion protein (protein)
chain: MEMAGCGEIDHSINMLPTNKKANESCSNTAPSLTVPECAICLQTCVHPVSLPCKHVFCYLCVKGASWLGKRCALCRQEIPEDFLDKPTLLSPEELKAASRGNGEYAWYYEGRNGWWQYDERTSRELEDAFSKGKKNTEMLIAGFLYVADLENMVQYRRNEHGRRRKIKRDIIDIPKKGVAGLRLDCDTNTVNLARESSADGADSGSAQTGASVQLAVPSSTRPLTSVDGQLTSPVTPSPDAGISLEDSFAHLQLSGDSIAERSHRGEGEEDHESPSSGRVPDTSVEETESDASSDSEDAPVVVAQHSLTQQRPLVPNGNQTVADQSDRSGTDRSVAGGGTMSVNVRSRRPDGQCTVIEV
modifications: left off: a dimerising Fc or GST
notes: full length recombinant GST-Iduna fusion protein
PAR polymer binding (PAR polymer): binds to PAR polymer

B2: Iduna C60A: Iduna RING finger point mutant lacking E3 ligase activity (protein, UniProt Q9NTX7 1-359, looked up, variant C60A)
E3 ubiquitin-protein ligase …: MMAGCGEIDHSINMLPTNRKANESCSNTAPSLTVPECAICLQTCVHPVSLPCKHVFCYLAVKGASWLGKRCALCRQEIPEDFLDKPTLLSPEELKAASRGNGEYAWYYEGRNGWWQYDERTSRELEDAFSKGKKNTEMLIAGFLYVADLENMVQYRRNEHGRRRKIKRDIIDIPKKGVAGLRLDCDANTVNLARESSADGADSVSAQSGASVQPLVSSVRPLTSVDGQLTSPATPSPDASTSLEDSFAHLQLSGDNTAERSHRGEGEEDHESPSSGRVPAPDTSIEETESDASSDSEDVSAVVAQHSLTQQRLLVSNANQTVPDRSDRSGTDRSVAGGGTVSVSVRSRRPDGQCTVTEV
modifications: GFP tag
comet head diameter and tail length (MCF7 cells [1]): does not prevent the reduction in head diameter and increase in tail length
cell cycle arrest and cell survival (MCF7 cells [2]): not protective
MNNG-induced cell death (MCF7 cells [3]): not protective
increase in AP sites after MNNG (MCF7 cells [4]): fails to reduce the number of AP sites

B3: PARG: PAR glycohydrolase, which degrades PAR (protein, UniProt Q86W56 1-976, looked up)
Poly(ADP-ribose) …: MNAGPGCEPCTKRPRWGAATTSPAASDARSFPSRQRRVLDPKDAHVQFRVPPSSPACVPGRAGQHRGSATSLVFKQKTITSWMDTKGIKTAESESLDSKENNNTRIESMMSSVQKDNFYQHNVEKLENVSQLSLDKSPTEKSTQYLNQHQTAAMCKWQNEGKHTEQLLESEPQTVTLVPEQFSNANIDRSPQNDDHSDTDSEENRDNQQFLTTVKLANAKQTTEDEQAREAKSHQKCSKSCDPGEDCASCQQDEIDVVPESPLSDVGSEDVGTGPKNDNKLTRQESCLGNSPPFEKESEPESPMDVDNSKNSCQDSEADEETSPGFDEQEDGSSSQTANKPSRFQARDADIEFRKRYSTKGGEVRLHFQFEGGESRTGMNDLNAKLPGNISSLNVECRNSKQHGKKDSKITDHFMRLPKAEDRRKEQWETKHQRTERKIPKYVPPHLSPDKKWLGTPIEEMRRMPRCGIRLPLLRPSANHTVTIRVDLLRAGEVPKPFPTHYKDLWDNKHVKMPCSEQNLYPVEDENGERTAGSRWELIQTALLNKFTRPQNLKDAILKYNVAYSKKWDFTALIDFWDKVLEEAEAQHLYQSILPDMVKIALCLPNICTQPIPLLKQKMNHSITMSQEQIASLLANAFFCTFPRRNAKMKSEYSSYPDINFNRLFEGRSSRKPEKLKTLFCYFRRVTEKKPTGLVTFTRQSLEDFPEWERCEKPLTRLHVTYEGTIEENGQGMLQVDFANRFVGGGVTSAGLVQEEIRFLINPELIISRLFTEVLDHNECLIITGTEQYSEYTGYAETYRWSRSHEDGSERDDWQRRCTEIVAIDALHFRRYLDQFVPEKMRRELNKAYCGFLRPGVSSENLSAVATGNWGCGAFGGDARLKALIQILAAAAAERDVVYFTFGDSELMRDIYSMHIFLTERKLTVGDVYKLLLRYYNEECRNCSTPGPDIKLYPFIYHAVESCAETADHSGQRTGT
removal of PAR from PARsylated PARP1 (PARsylated PARP1): dose dependently removes PAR from PARsylated PARP1
